From patent publication US20180237480A1 (UNIVERSITY OF EDINBURGH, published 2018)

Experiments:
[1] = target: T1, human fibrinogen (human, UniProt P02671 20-629; P02675 31-491; P02679 27-437); test: solid phase adherence assay, 1 µg Fg per well, absorbance 590 nm
T1 construct: The three chains are general knowledge about fibrinogen; also called human Fg
T1 sequence 1: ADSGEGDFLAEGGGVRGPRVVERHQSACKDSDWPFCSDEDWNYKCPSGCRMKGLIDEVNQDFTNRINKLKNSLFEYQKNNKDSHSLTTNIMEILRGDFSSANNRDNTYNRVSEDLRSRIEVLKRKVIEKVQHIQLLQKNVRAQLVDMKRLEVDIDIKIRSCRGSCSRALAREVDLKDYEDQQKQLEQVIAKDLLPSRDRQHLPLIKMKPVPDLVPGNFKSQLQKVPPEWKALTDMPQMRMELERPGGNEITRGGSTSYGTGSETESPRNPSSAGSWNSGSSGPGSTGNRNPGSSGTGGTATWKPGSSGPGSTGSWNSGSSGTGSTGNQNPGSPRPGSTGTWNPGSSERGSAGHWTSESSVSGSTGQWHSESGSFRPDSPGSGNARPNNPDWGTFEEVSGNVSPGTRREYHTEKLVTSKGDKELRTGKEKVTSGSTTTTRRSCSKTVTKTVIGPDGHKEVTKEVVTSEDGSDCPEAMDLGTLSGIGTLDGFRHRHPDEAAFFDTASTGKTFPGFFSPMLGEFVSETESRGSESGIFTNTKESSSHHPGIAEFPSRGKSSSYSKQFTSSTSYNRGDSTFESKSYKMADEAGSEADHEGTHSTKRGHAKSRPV
T1 sequence 2: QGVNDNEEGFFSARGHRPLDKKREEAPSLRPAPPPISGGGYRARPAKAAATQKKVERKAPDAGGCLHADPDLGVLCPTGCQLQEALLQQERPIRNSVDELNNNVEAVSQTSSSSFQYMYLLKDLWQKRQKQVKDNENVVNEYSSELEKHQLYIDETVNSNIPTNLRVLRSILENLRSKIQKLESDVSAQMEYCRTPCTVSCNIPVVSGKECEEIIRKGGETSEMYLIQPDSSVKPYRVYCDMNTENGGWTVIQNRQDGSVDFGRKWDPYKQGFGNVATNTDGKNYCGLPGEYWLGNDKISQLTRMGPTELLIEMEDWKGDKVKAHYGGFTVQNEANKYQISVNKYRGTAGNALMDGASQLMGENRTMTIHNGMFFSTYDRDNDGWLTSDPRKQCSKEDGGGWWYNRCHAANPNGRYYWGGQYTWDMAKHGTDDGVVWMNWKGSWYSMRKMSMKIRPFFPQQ
T1 sequence 3: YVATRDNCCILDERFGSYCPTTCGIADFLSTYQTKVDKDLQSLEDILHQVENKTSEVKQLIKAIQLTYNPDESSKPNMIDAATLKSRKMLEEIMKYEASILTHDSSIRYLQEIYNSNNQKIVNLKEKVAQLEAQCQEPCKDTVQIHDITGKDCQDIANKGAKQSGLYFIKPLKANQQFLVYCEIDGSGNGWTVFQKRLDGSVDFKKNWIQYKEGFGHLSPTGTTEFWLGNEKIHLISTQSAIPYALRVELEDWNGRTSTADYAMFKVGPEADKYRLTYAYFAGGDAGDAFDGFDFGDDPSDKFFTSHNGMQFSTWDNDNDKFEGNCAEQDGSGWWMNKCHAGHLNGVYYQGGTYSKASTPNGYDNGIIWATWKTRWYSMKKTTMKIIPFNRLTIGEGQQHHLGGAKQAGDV

[2] = target: T2, bovine fibrinogen (bovine, UniProt P02672 20-615; P02676 1-468; P12799 25-444); test: as above
T2 construct: The three chains are general knowledge about fibrinogen; also called bovine Fg
T2 sequence 1: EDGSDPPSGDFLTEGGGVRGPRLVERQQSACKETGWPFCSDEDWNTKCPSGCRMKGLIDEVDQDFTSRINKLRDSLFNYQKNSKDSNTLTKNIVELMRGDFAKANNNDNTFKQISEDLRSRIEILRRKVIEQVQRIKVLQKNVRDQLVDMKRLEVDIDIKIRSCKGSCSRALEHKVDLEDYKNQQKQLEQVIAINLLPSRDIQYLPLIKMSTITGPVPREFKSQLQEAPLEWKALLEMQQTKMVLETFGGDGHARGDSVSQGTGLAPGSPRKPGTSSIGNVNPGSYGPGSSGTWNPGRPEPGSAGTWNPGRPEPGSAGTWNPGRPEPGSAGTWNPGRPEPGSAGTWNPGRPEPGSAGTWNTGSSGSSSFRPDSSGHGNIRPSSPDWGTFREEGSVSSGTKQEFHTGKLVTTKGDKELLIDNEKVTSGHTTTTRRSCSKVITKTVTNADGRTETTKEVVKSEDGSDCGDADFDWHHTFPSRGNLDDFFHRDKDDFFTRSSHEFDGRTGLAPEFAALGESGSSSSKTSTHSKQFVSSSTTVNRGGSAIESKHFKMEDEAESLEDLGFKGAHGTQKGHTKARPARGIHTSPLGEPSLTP
T2 sequence 2: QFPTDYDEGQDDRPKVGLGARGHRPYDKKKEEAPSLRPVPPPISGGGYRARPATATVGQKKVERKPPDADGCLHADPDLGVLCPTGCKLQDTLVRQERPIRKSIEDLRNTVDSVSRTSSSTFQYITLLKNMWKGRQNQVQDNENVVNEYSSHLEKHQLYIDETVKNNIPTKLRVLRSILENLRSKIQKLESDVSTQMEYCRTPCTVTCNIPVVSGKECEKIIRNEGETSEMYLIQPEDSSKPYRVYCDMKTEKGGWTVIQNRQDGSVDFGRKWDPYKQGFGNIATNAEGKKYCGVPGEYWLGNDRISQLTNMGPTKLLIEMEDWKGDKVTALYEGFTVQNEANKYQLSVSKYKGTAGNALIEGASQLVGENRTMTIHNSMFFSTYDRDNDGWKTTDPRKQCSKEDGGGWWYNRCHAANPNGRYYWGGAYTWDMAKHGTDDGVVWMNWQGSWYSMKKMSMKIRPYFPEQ
T2 sequence 3: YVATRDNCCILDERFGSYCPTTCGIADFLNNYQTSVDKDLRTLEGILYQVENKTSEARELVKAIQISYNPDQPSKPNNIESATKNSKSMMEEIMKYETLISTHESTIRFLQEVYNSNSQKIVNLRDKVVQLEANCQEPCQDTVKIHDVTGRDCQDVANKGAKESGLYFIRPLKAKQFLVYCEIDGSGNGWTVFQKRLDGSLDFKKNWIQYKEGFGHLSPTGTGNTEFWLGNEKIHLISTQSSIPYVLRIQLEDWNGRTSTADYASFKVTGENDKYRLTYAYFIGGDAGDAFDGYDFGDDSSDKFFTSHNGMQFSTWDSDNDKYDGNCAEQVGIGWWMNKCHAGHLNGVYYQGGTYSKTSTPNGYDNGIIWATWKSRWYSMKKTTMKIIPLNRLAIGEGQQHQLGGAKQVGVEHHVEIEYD

B1: SpsD of S. pseudintermedius ED99, full-length, expressed on L. lactis MG1363 (pOri23) (other)
chain: SEVSATTQEHNVETEQTKTEGELTTEVAQQAVSESAPIAENMQKTTSVASENAKEVTASDSTQEVTKTEAKDTATMKDSEIAQPVSEVNKPVTQTAAPVAEPSTANKQTSPRQVQELTAPMDTKVINVENGTDVTSKVKVEKSSITGHQNKDKTYHQSNTVNPHKAERVTLNYDWSFENGIKAGDYFDFQLSDNVDTNGISTIKKVPHIMDSQNSEQIIAYGEINENNRVRYRFMDYVNQKENLKGKLSLNLFIKPDKVQDEGKITVTSQLGKEMTSQEFDIKYIDGVKSPSGITLNGRLDELSKADQSFTHYSIFKPKHNNLTNVTLRGTVSNNAQQNEKNGQVNVYEYIGQGELPQSAYANVNDTKQFNDITKSMKSIKNNSNGYEITFDMNKDNHPYIIVYQGHFNNNAKDFDFSTNATGYQNLNQSEYSYYWPYNYSFNLTWDNGVAFYSNNASGEGNDKPVPPTYGYSPTVNTIQDTHADYPVMTFQQPGTLEETEDSMPITTLTESGEDRGENTSPIIETTEDSQPVEFEEETNHGIQDVTLHADAVDFEEETNHGEQDTVHHSDVVEYDEDTTTGMLTGAISDHTTEEGTMEYTTDGLLIEFDDEMNPNVSGQYDDITTDTIEESSHIDTFTELESEFGQHDGIVTFEEDTIVEKPKTEKGNRVPLVIDLSTPKHNHQFNIQPTDPNIDTSATYRIGNFVWRDEDHNGVQNDGEHGLEGVLVTLKTADGVVLNTTTSDANGHYQFTNVQKGKYIVEFTTPEGYEATSKHTTANTEKDSDGLIANIDVTQDDMSIDAGFFPLENWNPQPEPKNPDDREKPAPEQPDVPQPEPKNPDDREKPAPEQPDVPQPEPKNPDDREKPAPEQPDVPQPEPKNPDDKEKPAPEQPDVPQPEPKNPDDKEKPAPEQPDAPQPKPMLPGEKVKPKPTHPGEAMQTTPQDKSTSQTDEALPKTGESSSQSSALIFGGLLSLLGLGLLRRSSKQNRSSMK
notes: also called L. lactis expressing SpsD; putative MSCRAMM SpsD
B1: binds [1]; binds [2].
